According to patent US20240366811A1, “RA[…] P[…] USES THEREOF” (TIANJIN CONJUSTAR BIOLOGICS CO., LTD., priority 2023, published 2024):
*1 amine or outer side, *2 acyl side, *3 side chain or, on linkers, in order; H or OH if unused. Where a SMILES comes first, the peptide text is derived from it. Bridges are numbered along the chain shown (N, C = ends). [ ]: non-standard residue; d: D form. The star is where a group is joined. TATA = O=C(CC[*:1])N1CN(C(=O)CC[*:2])CN(C(=O)CC[*:3])C1; NOTA = O=C(O)CN1CCN(CC(=O)O)CCN(CC(=O)*)CC1; Hyp = O=C(O)[C@@H]1C[C@@H](O)CN1; hArg = N=C(N)NCCCC[C@H](N)C(=O)O; Pen = CC(C)(S)[C@H](N)C(=O)O; βAla = NCCC(=O)O; Sar = CNCC(=O)O

Columns and labels:
in vivo [1] = conditions: nude, mouse, iv, 11.1 MBq, total radioactivity
Method: The tissue distribution characteristics of the compounds in PC-3 tumor-bearing mice were studied by using the PC-3 tumor-bearing mice model, small animal PET/CT scans were performed at different time points after a single intravenous administration of the compounds, tumors and other regions of interest were delineated to obtain radioactive uptake values.
Tumor cells in the logarithmic growth phase were used for in vivo tumor inoculation. PC-3 cells were suspended in saline at a density of 5×10^6/mL, and a total of 15 nude mice were inoculated under the right flank at 0.1 mL per inoculation point. Imaging and biodistribution experiments were performed when tumors grew to 300-600 mm^3 (tumor volume measurement method: the long diameter and short diameter of the tumor were measured, and its volume calculation formula was: volume=0.5× major diameter× minor diameter^2). The drug was distributed according to the animal dose on the drug distribution table, and a certain volume of compound diluent was absorbed by a 1 mL insulin syringe, and the initial radioactive dose and initial dosimetry time were recorded. The injection time, residual radioactivity dose, and residual dose determination time were recorded after tail vein injection in tumor-bearing mice. […] PET/CT scans of animals were performed at different time points after administration. During the scanning process, the animals continued to inhale 1-2% isoflurane to maintain the anesthetic effect, and the scanning time was recorded. […] After the completion of PET/CT scanning, the images were reconstructed and the images and data were processed with the software of the device. The tumor, heart (including contents), kidney, intestine, and muscle were delineated as regions of interest. The percentage injection dose rate per gram of tissue in the area of interest (% ID/g) was obtained. The data of biological distribution was expressed as the percentage of radioactive count per gram of tissue or organ to the total dose (radioactive count) (% ID/g).
Data for each sampling point were expressed as the mean standard deviation (mean SD) of 3 tumor-bearing mice.

in vivo [2] = conditions: mouse, iv, 11.1 MBq, total radioactivity; for tissue uptake at 4 h: dissected tissue, single iv 11.1 MBq
Method: In vivo radiobiological distribution assay: mice in the PET/CT imaging group were sacrificed immediately after the end of 4 h imaging, and mice in the inhibition group were sacrificed after 1 h imaging. Tissue samples of tumor, blood, heart, lung, liver, spleen, kidney, stomach, intestine, bone, muscle, and brain were collected by dissection, weighed and their radioactive counts were recorded. The probe uptake value in each tissue and organ of each experimental animal is expressed as radioactivity per gram of tissue as a percentage of the dose administered (% ID/g).

[3] = tumor and heart (including contents)

CC(C)C[C@@H]1NC(=O)[C@@H]2CSCCC(=O)N3CN(CN(C3)C(=O)CCSC(C)(C)[C@@H](C(N)=O)NC(=O)[C@H](CCCCNC(=N)N)NC(=O)[C@H](Cc3c[nH]c4ccccc34)NC(=O)[C@@H](CC(=O)O)NC(=O)[C@@H]3CCCN3C(=O)[C@H](Cc3c[nH]cn3)NC1=O)C(=O)CCSC[C@H](NC(=O)[C@@H]1CC(=O)NCCCC[C@H](NC(=O)CN(C)C(=O)CN(C)C(=O)CN(C)C(=O)CN(C)C(=O)CN(C)C(=O)CN(C)C(=O)CN(C)C(=O)CN(C)C(=O)CN(C)C(=O)CN(C)C(=O)CCNC(=O)CN3CCN(CC(=O)O)CCN(CC(=O)O)CC3)C(=O)N[C@@H](CCCCNC(=N)N)C(=O)N1)C(=O)N1C[C@H](O)C[C@H]1C(=O)N[C@@H](CC(C)C)C(=O)N[C@@H](C(C)C)C(=O)N[C@@H](CC(N)=O)C(=O)N1CCC[C@H]1C(=O)N[C@@H](CC(C)C)C(=O)N2 [Example 3] ({NOTA-βAla}-[Sar][Sar][Sar][Sar][Sar][Sar][Sar][Sar][Sar][Sar]K[hArg]DC[Hyp]LVNPLCLHP[dD]W[hArg][Pen]-NH2; lactam 11-13; linker 14-21-28 via TATA)
tissue uptake at 2 h (in vivo [1]; muscle): 0.07 ± 0.02 %ID/g | tissue uptake at 4 h (in vivo [1]; muscle): 0.03 ± 0.01 %ID/g | tissue to tissue ratio at 0.5 h (in vivo [1]; [3]): 1.23 ± 0.25 | tissue to tissue ratio at 1 h (in vivo [1]; [3]): 2.08 ± 0.74 | tissue to tissue ratio at 2 h (in vivo [1]; [3]): 6.97 ± 3.01 | tissue to tissue ratio at 4 h (in vivo [1]; [3]): 15.9 ± 5.85 | tissue to tissue ratio at 0.5 h (in vivo [1]; tumor and kidney): 0.12 ± 0.01 | tissue to tissue ratio at 1 h (in vivo [1]; tumor and kidney): 0.13 ± 0.03 | tissue to tissue ratio at 2 h (in vivo [1]; tumor and kidney): 0.12 ± 0.06 | tissue to tissue ratio at 0.5 h (in vivo [1]; tumor and liver): 1.57 ± 0.14 | tissue to tissue ratio at 1 h (in vivo [1]; tumor and liver): 2.24 ± 0.68 | tissue to tissue ratio at 2 h (in vivo [1]; tumor and liver): 4.53 ± 1.44 | tissue to tissue ratio at 0.5 h (in vivo [1]; tumor and muscle): 2.69 ± 0.47 | tissue to tissue ratio at 1 h (in vivo [1]; tumor and muscle): 5.01 ± 0.82 | tissue to tissue ratio at 2 h (in vivo [1]; tumor and muscle): 15.6 ± 3.52 | tissue to tissue ratio at 4 h (in vivo [1]; tumor and muscle): 31.4 ± 9.05 | tissue uptake at 2 min (in vivo [1]; tumor): 1.37 ± 0.21 %ID/g | tissue uptake at 5 min (in vivo [1]; tumor): 1.41 ± 0.13 %ID/g | tissue uptake at 8 min (in vivo [1]; tumor): 1.45 ± 0.13 %ID/g | tissue uptake at 11 min (in vivo [1]; tumor): 1.46 ± 0.09 %ID/g | tissue uptake at 14 min (in vivo [1]; tumor): 1.46 ± 0.07 %ID/g | tissue uptake at 17 min (in vivo [1]; tumor): 1.48 ± 0.08 %ID/g | tissue uptake at 20 min (in vivo [1]; tumor): 1.51 ± 0.13 %ID/g | tissue uptake at 23 min (in vivo [1]; tumor): 1.46 ± 0.09 %ID/g | tissue uptake at 26 min (in vivo [1]; tumor): 1.46 ± 0.13 %ID/g | tissue uptake at 29 min (in vivo [1]; tumor): 1.45 ± 0.14 %ID/g | tissue uptake at 0.5 h (in vivo [1]; tumor): 1.43 ± 0.13 %ID/g | tissue uptake at 1 h (in vivo [1]; tumor): 1.27 ± 0.28 %ID/g | tissue uptake at 2 h (in vivo [1]; tumor): 1.04 ± 0.45 %ID/g | tissue uptake at 4 h (in vivo [1]; tumor): 0.98 ± 0.46 %ID/g | tissue uptake at 4 h (in vivo [2]; nude mice, heart, radioactive uptake: Heart, mouse S1): 0.31 %ID/g | tissue uptake at 4 h (in vivo [2]; nude mice, intestine, radioactive uptake: Intestine, Mean ± SD of S1-S3): 0.31 ± 0.1 %ID/g | tissue uptake at 4 h (in vivo [2]; nude mice, intestine, radioactive uptake: Intestine, mouse S1): 0.42 %ID/g | tissue uptake at 4 h (in vivo [2]; nude mice, intestine, radioactive uptake: Intestine, mouse S2): 0.29 %ID/g | tissue uptake at 4 h (in vivo [2]; nude mice, intestine, radioactive uptake: Intestine, mouse S3): 0.22 %ID/g | tissue uptake at 4 h (in vivo [2]; nude mice, muscle, radioactive uptake: Muscle, Mean ± SD of S1-S3): 0.5 ± 0.23 %ID/g | tissue uptake at 4 h (in vivo [2]; nude mice, muscle, radioactive uptake: Muscle, mouse S1): 0.46 %ID/g | tissue uptake at 4 h (in vivo [2]; nude mice, muscle, radioactive uptake: Muscle, mouse S2): 0.76 %ID/g | tissue uptake at 4 h (in vivo [2]; nude mice, muscle, radioactive uptake: Muscle, mouse S3): 0.3 %ID/g | tissue to tissue ratio at 4 h (in vivo [2]; nude mice, tumor and spleen): 7.2 ± 3 | tissue to tissue ratio at 4 h (in vivo [2]; nude mice, tumor/blood): 21.9 ± 16.7 | tissue to tissue ratio at 4 h (in vivo [2]; nude mice, tumor/bone): 4.23 ± 2.87 | tissue to tissue ratio at 4 h (in vivo [2]; nude mice, tumor/brain): 58.8 ± 28.7 | tissue to tissue ratio at 4 h (in vivo [2]; nude mice, tumor/intestine): 15.7 ± 10.3 | tissue to tissue ratio at 4 h (in vivo [2]; nude mice, tumor/muscle): 11.3 ± 8.54 | tissue to tissue ratio at 4 h (in vivo [2]; nude mice, tumor/stomach): 24 ± 9.97 | tissue uptake at 4 h (in vivo [2]; nude, blood, radioactive uptake: Blood, Mean ± SD of S1-S3): 0.31 ± 0.22 %ID/g | tissue uptake at 4 h (in vivo [2]; nude, blood, radioactive uptake: Blood, mouse S1): 0.2 %ID/g | tissue uptake at 4 h (in vivo [2]; nude, blood, radioactive uptake: Blood, mouse S2): 0.56 %ID/g | tissue uptake at 4 h (in vivo [2]; nude, blood, radioactive uptake: Blood, mouse S3): 0.16 %ID/g | tissue uptake at 4 h (in vivo [2]; nude, bone, radioactive uptake: Bone, Mean ± SD of S1-S3): 1.23 ± 0.43 %ID/g | tissue uptake at 4 h (in vivo [2]; nude, bone, radioactive uptake: Bone, mouse S1): 1.15 %ID/g | tissue uptake at 4 h (in vivo [2]; nude, bone, radioactive uptake: Bone, mouse S2): 1.69 %ID/g | tissue uptake at 4 h (in vivo [2]; nude, bone, radioactive uptake: Bone, mouse S3): 0.84 %ID/g | tissue uptake at 4 h (in vivo [2]; nude, brain, radioactive uptake: Brain, Mean ± SD of S1-S3): 0.08 ± 0.03 %ID/g | tissue uptake at 4 h (in vivo [2]; nude, brain, radioactive uptake: Brain, mouse S1): 0.11 %ID/g | tissue uptake at 4 h (in vivo [2]; nude, brain, radioactive uptake: Brain, mouse S2): 0.05 %ID/g | tissue uptake at 4 h (in vivo [2]; nude, brain, radioactive uptake: Brain, mouse S3): 0.06 %ID/g | tissue uptake at 4 h (in vivo [2]; nude, heart, radioactive uptake: Heart, Mean ± SD of S1-S3): 0.26 ± 0.06 %ID/g | tissue uptake at 4 h (in vivo [2]; nude, heart, radioactive uptake: Heart, mouse S2): 0.29 %ID/g | tissue uptake at 4 h (in vivo [2]; nude, heart, radioactive uptake: Heart, mouse S3): 0.2 %ID/g | tissue uptake at 4 h (in vivo [2]; nude, kidney, radioactive uptake: Kidney, Mean ± SD of S1-S3): 57 ± 5.7 %ID/g | tissue uptake at 4 h (in vivo [2]; nude, kidney, radioactive uptake: Kidney, mouse S1): 62.7 %ID/g | tissue uptake at 4 h (in vivo [2]; nude, kidney, radioactive uptake: Kidney, mouse S2): 51.3 %ID/g | tissue uptake at 4 h (in vivo [2]; nude, kidney, radioactive uptake: Kidney, mouse S3): 57.1 %ID/g | tissue uptake at 4 h (in vivo [2]; nude, liver, radioactive uptake: Liver, Mean ± SD of S1-S3): 0.62 ± 0.11 %ID/g | tissue uptake at 4 h (in vivo [2]; nude, liver, radioactive uptake: Liver, mouse S1): 0.66 %ID/g | tissue uptake at 4 h (in vivo [2]; nude, liver, radioactive uptake: Liver, mouse S2): 0.5 %ID/g | tissue uptake at 4 h (in vivo [2]; nude, liver, radioactive uptake: Liver, mouse S3): 0.71 %ID/g | tissue uptake at 4 h (in vivo [2]; nude, lung, radioactive uptake: Lung, Mean ± SD of S1-S3): 0.42 ± 0.1 %ID/g | tissue uptake at 4 h (in vivo [2]; nude, lung, radioactive uptake: Lung, mouse S1): 0.49 %ID/g | tissue uptake at 4 h (in vivo [2]; nude, lung, radioactive uptake: Lung, mouse S2): 0.46 %ID/g | tissue uptake at 4 h (in vivo [2]; nude, lung, radioactive uptake: Lung, mouse S3): 0.31 %ID/g | tissue uptake at 4 h (in vivo [2]; nude, spleen, radioactive uptake: Spleen, Mean ± SD of S1-S3): 0.6 ± 0.06 %ID/g | tissue uptake at 4 h (in vivo [2]; nude, spleen, radioactive uptake: Spleen, mouse S1): 0.66 %ID/g | tissue uptake at 4 h (in vivo [2]; nude, spleen, radioactive uptake: Spleen, mouse S2): 0.54 %ID/g | tissue uptake at 4 h (in vivo [2]; nude, spleen, radioactive uptake: Spleen, mouse S3): 0.59 %ID/g | tissue uptake at 4 h (in vivo [2]; nude, stomach, radioactive uptake: Stomach, Mean ± SD of S1-S3): 0.18 ± 0.04 %ID/g | tissue uptake at 4 h (in vivo [2]; nude, stomach, radioactive uptake: Stomach, mouse S1): 0.22 %ID/g | tissue uptake at 4 h (in vivo [2]; nude, stomach, radioactive uptake: Stomach, mouse S2): 0.15 %ID/g | tissue uptake at 4 h (in vivo [2]; nude, stomach, radioactive uptake: Stomach, mouse S3): 0.17 %ID/g | tissue to tissue ratio at 4 h (in vivo [2]; nude, tumor and heart): 18 ± 11.4 | tissue to tissue ratio at 4 h (in vivo [2]; nude, tumor and lung): 11.3 ± 7.18 | tissue uptake at 4 h (in vivo [2]; nude, tumor, radioactive uptake: Tumor, Mean ± SD of S1-S3): 4.38 ± 1.94 %ID/g | tissue uptake at 4 h (in vivo [2]; nude, tumor, radioactive uptake: Tumor, mouse S1): 5.03 %ID/g | tissue uptake at 4 h (in vivo [2]; nude, tumor, radioactive uptake: Tumor, mouse S2): 2.19 %ID/g | tissue uptake at 4 h (in vivo [2]; nude, tumor, radioactive uptake: Tumor, mouse S3): 5.9 %ID/g
